Values of other authors in patent publication US7759315B2, “Treatment of inflammatory conditions of the intestine” (CSL Behring AG, priority 2005, dated 2010).
Non-standard residues stand in square brackets, D forms with d. No end group written: not given here. Nal = naphthylalanine (source code Z); Aib = CC(C)(N)C(=O)O

Assays:
LCAT = biological target: T1, LCAT (Homo sapiens, UniProt P04180)
T1 sequence (P04180 25-440): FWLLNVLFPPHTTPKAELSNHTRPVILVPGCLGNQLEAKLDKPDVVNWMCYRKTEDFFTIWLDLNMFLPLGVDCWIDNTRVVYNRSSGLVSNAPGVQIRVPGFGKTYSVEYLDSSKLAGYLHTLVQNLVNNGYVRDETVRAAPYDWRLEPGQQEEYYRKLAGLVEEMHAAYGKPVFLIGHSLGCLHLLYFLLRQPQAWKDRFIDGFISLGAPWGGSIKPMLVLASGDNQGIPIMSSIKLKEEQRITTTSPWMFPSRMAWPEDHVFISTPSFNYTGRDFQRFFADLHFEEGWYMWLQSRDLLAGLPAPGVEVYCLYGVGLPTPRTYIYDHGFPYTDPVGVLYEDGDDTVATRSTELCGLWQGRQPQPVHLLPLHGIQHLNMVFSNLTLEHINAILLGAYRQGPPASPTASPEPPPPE

[1] = percent helicity; for He (%): micelles; for He (%) free: free peptide

Substance: EWLKAFYEKVLEKLKELF [Peptide 248, [Glu^1.8; Leu^5,11,17]; 18A peptide (Epand et al., 1987), reference compound]
- ACTIVITY (%) LCAT (LCAT): 3%
- He (%) [1]: 45%

Substance: PVLELFENLLERLLDALQKKLK [Peptide 146]
- ACTIVITY (%) LCAT (LCAT): 86%
- He (%) [1]: 100%

Substance: PVLDLFRELLNEGLEALKQKLK [Peptide 8]
- ACTIVITY (%) LCAT (LCAT): 83%
- He (%) [1]: 90%

Substance: PVLDLFRWLLNEXLEALKQKLK (PVLDLFRWLLNE[Aib]LEALKQKLK; not fully specified (C-terminus)) [Peptide 108]
- ACTIVITY (%) LCAT (LCAT): 0%
- He (%) [1]: 55%

Substance: PVLELFRELLEELKQKLK* (not fully specified (N-terminus, C-terminus); printed as PVLELFRELLEELKQKLK*) [Peptide 194]
- ACTIVITY (%) LCAT (LCAT): 88%
- He (%) [1]: 93%

Substance: pvldlfrellneXlealkqklk [Peptide 100]
- ACTIVITY (%) LCAT (LCAT): 2%
- He (%) [1]: 92%

Substance: PVLDLFRELLNWXLEALKQKLK (PVLDLFRELLNW[Aib]LEALKQKLK; not fully specified (C-terminus)) [Peptide 101]
- ACTIVITY (%) LCAT (LCAT): 2%
- He (%) [1]: sp

Substance: PVLDLWRELLNEXLEALKQKLK (PVLDLWRELLNE[Aib]LEALKQKLK; not fully specified (C-terminus)) [Peptide 41]
- ACTIVITY (%) LCAT (LCAT): 25%
- He (%) [1]: 73%

Substance: PVLDLFREWLNELLEALKQKLK [Peptide 37]
- ACTIVITY (%) LCAT (LCAT): 29%
- He (%) [1]: 75%

Substance: PVLDLFRELLNEXLEALKQKLK (PVLDLFRELLNE[Aib]LEALKQKLK; not fully specified (C-terminus)) [Peptide 6]
- ACTIVITY (%) LCAT (LCAT): 80%
- He (%) [1]: 93%

Substance: PVLDFFRELLNEXLEALKQKLK (PVLDFFRELLNE[Aib]LEALKQKLK; not fully specified (C-terminus)) [Peptide 25]
- ACTIVITY (%) LCAT (LCAT): 51%
- He (%) [1]: 82%

Substance: pVLELFENLLERLLDALQKKLK ([dP]VLELFENLLERLLDALQKKLK; not fully specified (C-terminus); printed as pVLELFENLLERLLDALQKKLK) [Peptide 144]
- ACTIVITY (%) LCAT (LCAT): 111%
- He (%) free [1]: 89%
- He (%) [1]: 88%

Substance: EWLEAFYKKVLEKLKELF [Peptide 246, 18AM4 peptide (Rosseneu et al., WO93/25581; Corijn et al., 1993), reference compound]
- ACTIVITY (%) LCAT (LCAT): 4%
- He (%) [1]: 44%

Substance: PVLELFENLLERLLDWLQKKLK [Peptide 160]
- ACTIVITY (%) LCAT (LCAT): 28%
- He (%) [1]: 73%

Substance: PVLDLFRELLNEWLEALKQKLK [Peptide 54]
- ACTIVITY (%) LCAT (LCAT): 19%
- He (%) [1]: 71%

Substance: PVLELFENLLERLLDAWQKKLK [Peptide 164]
- ACTIVITY (%) LCAT (LCAT): 24%
- He (%) [1]: 66%

Substance: PLLDLFRELLEELKQKLK* (not fully specified (N-terminus, C-terminus); printed as PLLDLFRELLEELKQKLK*) [Peptide 197]
- ACTIVITY (%) LCAT (LCAT): 81%
- He (%) [1]: 70%

Substance: PVLDLFKELLNELLEALKQKLK [Peptide 7]
- ACTIVITY (%) LCAT (LCAT): 83%
- He (%) [1]: 89%

Substance: EWLEAFYKKVLEKLKELF* (Ac-EWLEAFYKKVLEKLKELF-NH2) [Peptide 239, Ac-18AM4-C(O)NH2 peptide (Brasseur, 1993), reference compound]
- ACTIVITY (%) LCAT (LCAT): 11%
- He (%) [1]: 49%

Substance: PVLDLFLELLNEXLEALKQKLK (PVLDLFLELLNE[Aib]LEALKQKLK; not fully specified (C-terminus)) [Peptide 31]
- ACTIVITY (%) LCAT (LCAT): 34%
- He (%) [1]: 98%

Substance: PVLDLFRELLNELLEALKQKLK [Peptide 4]
- ACTIVITY (%) LCAT (LCAT): 93%
- He (%) [1]: 95%

Substance: pllellkellqellealkqklk ([dP][dL][dL][dE][dL][dL][dK][dE][dL][dL][dQ][dE][dL][dL][dE][dA][dL][dK][dQ][dK][dL][dK]; not fully specified (C-terminus); printed as pllellkellqellealkqklk) [Peptide 87]
- ACTIVITY (%) LCAT (LCAT): 7%
- He (%) [1]: 100%

Substance: PVLDEFREKLNEXLEALKQKLK (PVLDEFREKLNE[Aib]LEALKQKLK; not fully specified (C-terminus)) [Peptide 45]
- ACTIVITY (%) LCAT (LCAT): 24%
- He (%) SUVs ([1]; SUVs): 25%
- He (%) free [1]: 24%
- He (%) [1]: 84%

Substance: PVLDLFRELLEELLKALKKKLK [Peptide 39]
- ACTIVITY (%) LCAT (LCAT): 25%
- He (%) [1]: 69%

Substance: PVLELFENLLERLGDALQKKLK [Peptide 148]
- ACTIVITY (%) LCAT (LCAT): 75%
- He (%) [1]: 76%

Substance: PVLDAFRELLEALAQLKK [Peptide 223]
- ACTIVITY (%) LCAT (LCAT): 8%
- He (%) [1]: 56%

Substance: DWFKAFYDKVAEKFKEAF [Peptide 243]
- ACTIVITY (%) LCAT (LCAT): 5%
- He (%) [1]: 64%

Substance: PVLDEFREKLNEXWEALKQKLK (PVLDEFREKLNE[Aib]WEALKQKLK; not fully specified (C-terminus)) [Peptide 42]
- ACTIVITY (%) LCAT (LCAT): 25%
- He (%) [1]: 74%

Substance: GVLELFENLLERLLDALQKKLK [Peptide 145]
- ACTIVITY (%) LCAT (LCAT): 100%
- He (%) [1]: 51%

Substance: PVLDLFRELLNELZEALKQKLK (PVLDLFRELLNEL[Nal]EALKQKLK; not fully specified (C-terminus)) [Peptide 27]
- ACTIVITY (%) LCAT (LCAT): 44%
- He (%) [1]: 92%

Substance: PLLELLKELLQELLEALKQKLK [Peptide 36]
- ACTIVITY (%) LCAT (LCAT): 31%
- He (%) [1]: 100%

Substance: PVLDLFRELLEEWKQKLK* (not fully specified (N-terminus, C-terminus); printed as PVLDLFRELLEEWKQKLK*) [Peptide 215]
- ACTIVITY (%) LCAT (LCAT): 38%
- He (%) [1]: 63%

Substance: PVLDLFRNLLEKLLEALEQKLK [Peptide 49]
- ACTIVITY (%) LCAT (LCAT): 22%
- He (%) [1]: 65%

Substance: PVLELFENLLERLWDALQKKLK [Peptide 163]
- ACTIVITY (%) LCAT (LCAT): 26%
- He (%) [1]: 53%

Substance: PVLDLFRELLNEXLEAWKQKLK (PVLDLFRELLNE[Aib]LEAWKQKLK; not fully specified (C-terminus)) [Peptide 38]
- ACTIVITY (%) LCAT (LCAT): 29%
- He (%) [1]: 49%

Substance: P~LDLFRELLNELLEALKQKLK (PLDLFRELLNELLEALKQKLK) [Peptide 85]
- ACTIVITY (%) LCAT (LCAT): 7%
- He (%) [1]: 61%

Substance: PVLDLFRNLLEELLEALQKKLK [Peptide 66]
- ACTIVITY (%) LCAT (LCAT): 15%
- He (%) [1]: 82%

Substance: PVLDLFRELLEELKQKLK [Peptide 210]
- ACTIVITY (%) LCAT (LCAT): 46%
- He (%) [1]: 63%

Substance: PVLDLFWELLNEXLEALKQKLK (PVLDLFWELLNE[Aib]LEALKQKLK; not fully specified (C-terminus)) [Peptide 51]
- ACTIVITY (%) LCAT (LCAT): 20%
- He (%) [1]: 82%

Substance: PVLDLFRELLNELWEALKQKLK [Peptide 28]
- ACTIVITY (%) LCAT (LCAT): 40%
- He (%) [1]: 98%

Substance: PVLDEFREKLNERLEALKQKLK [Peptide 109, [R^13]-Consensus 22-mer peptide (Anantharamaiah et al., 1990), reference compound]
- ACTIVITY (%) LCAT (LCAT): 0%
- He (%) [1]: 45%

Substance: PVLDLFRELLNELLEALKQ~~~ [Peptide 60]
- ACTIVITY (%) LCAT (LCAT): 16%
- He (%) [1]: 83%

Substance: PVLDLFRELWNELLEALKQKLK [Peptide 15]
- ACTIVITY (%) LCAT (LCAT): 60%
- He (%) [1]: 60%

Substance: Infliximab
- Crohn's disease activity index (CDAI) (Crohn's disease patients): significant reduction
- histopathological and endoscopic inflammation (Crohn's disease patients): attenuation

Substance: PVLDLFRELLEELQKKLK [Peptide 220]
- ACTIVITY (%) LCAT (LCAT): 22%
- He (%) [1]: 64%

Substance: PVLDLFRELLNELLQKLK [Peptide 209]
- ACTIVITY (%) LCAT (LCAT): 47%
- He (%) [1]: 71%

Substance: PVLDEWREKLNEXLEALKQKLK (PVLDEWREKLNE[Aib]LEALKQKLK; not fully specified (C-terminus)) [Peptide 62]
- ACTIVITY (%) LCAT (LCAT): 16%
- He (%) [1]: 85%
